From patent publication US20240309360A1 (GOVERNING COUNCIL OF THE UNIVERSITY OF TORONTO, published 2024) come the findings set out here.

Experiment in all cases: BioID2 proximity labelling, HEK293 cells
In experiment [1] the target is T1, SRF (Serum Response Factor) tagged with BirA-FLAG (human; Aquifex aeolicus, UniProt P11831 1-508).
T1 construct: not shown: BioID2 biotin ligase (BirA from Aquifex aeolicus) tag
T1 sequence (looked up): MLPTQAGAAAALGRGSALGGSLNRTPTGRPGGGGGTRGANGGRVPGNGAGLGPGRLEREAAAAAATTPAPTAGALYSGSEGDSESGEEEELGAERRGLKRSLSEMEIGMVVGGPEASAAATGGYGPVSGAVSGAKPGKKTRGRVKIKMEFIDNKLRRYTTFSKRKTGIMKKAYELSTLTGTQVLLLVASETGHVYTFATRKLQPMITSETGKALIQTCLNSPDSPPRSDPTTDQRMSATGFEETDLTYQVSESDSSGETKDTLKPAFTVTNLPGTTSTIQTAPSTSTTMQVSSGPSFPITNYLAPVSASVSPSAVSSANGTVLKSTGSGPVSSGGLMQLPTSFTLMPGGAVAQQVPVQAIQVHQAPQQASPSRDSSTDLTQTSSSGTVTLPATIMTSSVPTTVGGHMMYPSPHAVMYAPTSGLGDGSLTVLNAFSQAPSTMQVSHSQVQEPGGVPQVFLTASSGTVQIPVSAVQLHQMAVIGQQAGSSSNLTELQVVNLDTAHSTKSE

For experiment [2], the target named is T2, SUZ12 tagged with BirA-FLAG (human; Aquifex aeolicus, UniProt Q15022 1-739).
T2 construct: not shown: BioID2 biotin ligase (BirA from Aquifex aeolicus) tag

The next experiment has as its target T3, p300 (human, UniProt Q09472 2-2414).
T3 construct: Endogenous prey identified by mass spectrometry; also called EP300; CBP/p300 (with CBP)

A further experiment has as its target T4, CBP (human, UniProt Q92793 2-2442).
T4 construct: Endogenous prey identified by mass spectrometry; also called CBP/p300 (with p300)

T4 sequence (Q92793 2-2442 limits assumed): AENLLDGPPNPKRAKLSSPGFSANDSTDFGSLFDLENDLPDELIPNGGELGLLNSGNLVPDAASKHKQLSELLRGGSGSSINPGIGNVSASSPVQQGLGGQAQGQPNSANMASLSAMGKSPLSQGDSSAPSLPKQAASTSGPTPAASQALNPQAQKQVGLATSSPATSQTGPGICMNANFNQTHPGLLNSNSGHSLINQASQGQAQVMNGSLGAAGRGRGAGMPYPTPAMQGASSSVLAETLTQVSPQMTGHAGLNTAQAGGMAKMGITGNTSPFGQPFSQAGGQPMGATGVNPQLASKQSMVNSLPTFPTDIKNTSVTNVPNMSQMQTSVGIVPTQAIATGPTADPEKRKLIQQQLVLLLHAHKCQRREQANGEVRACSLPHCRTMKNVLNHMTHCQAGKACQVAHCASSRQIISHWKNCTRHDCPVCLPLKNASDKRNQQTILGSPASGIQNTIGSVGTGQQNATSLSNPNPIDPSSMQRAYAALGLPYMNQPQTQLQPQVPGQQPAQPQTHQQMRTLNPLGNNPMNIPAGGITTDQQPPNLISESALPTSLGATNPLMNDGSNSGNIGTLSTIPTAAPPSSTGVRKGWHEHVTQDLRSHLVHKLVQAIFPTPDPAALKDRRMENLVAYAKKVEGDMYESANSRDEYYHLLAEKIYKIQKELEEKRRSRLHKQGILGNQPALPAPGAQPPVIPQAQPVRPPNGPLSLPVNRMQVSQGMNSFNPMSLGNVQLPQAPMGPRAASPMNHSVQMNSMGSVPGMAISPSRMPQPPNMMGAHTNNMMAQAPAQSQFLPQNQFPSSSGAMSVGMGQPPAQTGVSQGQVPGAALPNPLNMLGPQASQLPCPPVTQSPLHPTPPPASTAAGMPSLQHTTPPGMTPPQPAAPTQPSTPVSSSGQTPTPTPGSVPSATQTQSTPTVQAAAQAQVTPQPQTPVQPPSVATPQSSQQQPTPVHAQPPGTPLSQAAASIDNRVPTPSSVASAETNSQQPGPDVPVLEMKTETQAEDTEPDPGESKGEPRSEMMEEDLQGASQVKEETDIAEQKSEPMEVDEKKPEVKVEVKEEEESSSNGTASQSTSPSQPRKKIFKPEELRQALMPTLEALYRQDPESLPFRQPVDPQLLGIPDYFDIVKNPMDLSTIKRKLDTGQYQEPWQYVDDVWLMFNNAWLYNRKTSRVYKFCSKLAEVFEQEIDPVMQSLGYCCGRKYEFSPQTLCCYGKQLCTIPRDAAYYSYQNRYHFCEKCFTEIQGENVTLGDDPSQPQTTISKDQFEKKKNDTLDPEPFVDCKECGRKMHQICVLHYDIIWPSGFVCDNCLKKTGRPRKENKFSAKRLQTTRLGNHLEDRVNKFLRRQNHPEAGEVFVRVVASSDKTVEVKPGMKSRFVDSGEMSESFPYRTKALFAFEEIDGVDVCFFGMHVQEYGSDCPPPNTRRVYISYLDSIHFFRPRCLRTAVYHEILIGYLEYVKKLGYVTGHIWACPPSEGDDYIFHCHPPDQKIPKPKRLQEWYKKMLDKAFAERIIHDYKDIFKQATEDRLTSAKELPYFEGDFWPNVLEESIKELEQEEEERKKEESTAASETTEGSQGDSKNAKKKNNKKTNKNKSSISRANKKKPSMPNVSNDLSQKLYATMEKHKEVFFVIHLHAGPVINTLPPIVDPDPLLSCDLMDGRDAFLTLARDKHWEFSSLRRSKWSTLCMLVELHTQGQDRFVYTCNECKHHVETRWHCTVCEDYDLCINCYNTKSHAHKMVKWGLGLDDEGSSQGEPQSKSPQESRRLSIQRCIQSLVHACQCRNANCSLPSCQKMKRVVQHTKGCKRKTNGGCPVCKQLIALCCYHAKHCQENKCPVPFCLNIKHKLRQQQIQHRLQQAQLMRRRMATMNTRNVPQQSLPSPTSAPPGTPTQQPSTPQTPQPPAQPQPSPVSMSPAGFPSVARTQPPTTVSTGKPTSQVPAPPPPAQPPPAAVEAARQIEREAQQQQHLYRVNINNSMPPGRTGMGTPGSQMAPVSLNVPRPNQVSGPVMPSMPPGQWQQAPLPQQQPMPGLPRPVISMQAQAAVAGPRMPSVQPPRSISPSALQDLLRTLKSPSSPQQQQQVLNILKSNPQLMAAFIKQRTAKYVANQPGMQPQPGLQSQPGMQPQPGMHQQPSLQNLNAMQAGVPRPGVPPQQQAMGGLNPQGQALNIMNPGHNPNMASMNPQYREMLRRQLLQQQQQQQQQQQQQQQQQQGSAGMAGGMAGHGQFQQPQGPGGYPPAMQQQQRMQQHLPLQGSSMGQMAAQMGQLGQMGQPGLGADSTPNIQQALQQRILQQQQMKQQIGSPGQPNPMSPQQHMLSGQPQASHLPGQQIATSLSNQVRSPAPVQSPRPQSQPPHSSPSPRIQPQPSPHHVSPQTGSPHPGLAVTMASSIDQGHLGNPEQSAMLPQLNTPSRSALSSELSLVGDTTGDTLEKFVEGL
T3 sequence (Q09472 2-2414 limits assumed): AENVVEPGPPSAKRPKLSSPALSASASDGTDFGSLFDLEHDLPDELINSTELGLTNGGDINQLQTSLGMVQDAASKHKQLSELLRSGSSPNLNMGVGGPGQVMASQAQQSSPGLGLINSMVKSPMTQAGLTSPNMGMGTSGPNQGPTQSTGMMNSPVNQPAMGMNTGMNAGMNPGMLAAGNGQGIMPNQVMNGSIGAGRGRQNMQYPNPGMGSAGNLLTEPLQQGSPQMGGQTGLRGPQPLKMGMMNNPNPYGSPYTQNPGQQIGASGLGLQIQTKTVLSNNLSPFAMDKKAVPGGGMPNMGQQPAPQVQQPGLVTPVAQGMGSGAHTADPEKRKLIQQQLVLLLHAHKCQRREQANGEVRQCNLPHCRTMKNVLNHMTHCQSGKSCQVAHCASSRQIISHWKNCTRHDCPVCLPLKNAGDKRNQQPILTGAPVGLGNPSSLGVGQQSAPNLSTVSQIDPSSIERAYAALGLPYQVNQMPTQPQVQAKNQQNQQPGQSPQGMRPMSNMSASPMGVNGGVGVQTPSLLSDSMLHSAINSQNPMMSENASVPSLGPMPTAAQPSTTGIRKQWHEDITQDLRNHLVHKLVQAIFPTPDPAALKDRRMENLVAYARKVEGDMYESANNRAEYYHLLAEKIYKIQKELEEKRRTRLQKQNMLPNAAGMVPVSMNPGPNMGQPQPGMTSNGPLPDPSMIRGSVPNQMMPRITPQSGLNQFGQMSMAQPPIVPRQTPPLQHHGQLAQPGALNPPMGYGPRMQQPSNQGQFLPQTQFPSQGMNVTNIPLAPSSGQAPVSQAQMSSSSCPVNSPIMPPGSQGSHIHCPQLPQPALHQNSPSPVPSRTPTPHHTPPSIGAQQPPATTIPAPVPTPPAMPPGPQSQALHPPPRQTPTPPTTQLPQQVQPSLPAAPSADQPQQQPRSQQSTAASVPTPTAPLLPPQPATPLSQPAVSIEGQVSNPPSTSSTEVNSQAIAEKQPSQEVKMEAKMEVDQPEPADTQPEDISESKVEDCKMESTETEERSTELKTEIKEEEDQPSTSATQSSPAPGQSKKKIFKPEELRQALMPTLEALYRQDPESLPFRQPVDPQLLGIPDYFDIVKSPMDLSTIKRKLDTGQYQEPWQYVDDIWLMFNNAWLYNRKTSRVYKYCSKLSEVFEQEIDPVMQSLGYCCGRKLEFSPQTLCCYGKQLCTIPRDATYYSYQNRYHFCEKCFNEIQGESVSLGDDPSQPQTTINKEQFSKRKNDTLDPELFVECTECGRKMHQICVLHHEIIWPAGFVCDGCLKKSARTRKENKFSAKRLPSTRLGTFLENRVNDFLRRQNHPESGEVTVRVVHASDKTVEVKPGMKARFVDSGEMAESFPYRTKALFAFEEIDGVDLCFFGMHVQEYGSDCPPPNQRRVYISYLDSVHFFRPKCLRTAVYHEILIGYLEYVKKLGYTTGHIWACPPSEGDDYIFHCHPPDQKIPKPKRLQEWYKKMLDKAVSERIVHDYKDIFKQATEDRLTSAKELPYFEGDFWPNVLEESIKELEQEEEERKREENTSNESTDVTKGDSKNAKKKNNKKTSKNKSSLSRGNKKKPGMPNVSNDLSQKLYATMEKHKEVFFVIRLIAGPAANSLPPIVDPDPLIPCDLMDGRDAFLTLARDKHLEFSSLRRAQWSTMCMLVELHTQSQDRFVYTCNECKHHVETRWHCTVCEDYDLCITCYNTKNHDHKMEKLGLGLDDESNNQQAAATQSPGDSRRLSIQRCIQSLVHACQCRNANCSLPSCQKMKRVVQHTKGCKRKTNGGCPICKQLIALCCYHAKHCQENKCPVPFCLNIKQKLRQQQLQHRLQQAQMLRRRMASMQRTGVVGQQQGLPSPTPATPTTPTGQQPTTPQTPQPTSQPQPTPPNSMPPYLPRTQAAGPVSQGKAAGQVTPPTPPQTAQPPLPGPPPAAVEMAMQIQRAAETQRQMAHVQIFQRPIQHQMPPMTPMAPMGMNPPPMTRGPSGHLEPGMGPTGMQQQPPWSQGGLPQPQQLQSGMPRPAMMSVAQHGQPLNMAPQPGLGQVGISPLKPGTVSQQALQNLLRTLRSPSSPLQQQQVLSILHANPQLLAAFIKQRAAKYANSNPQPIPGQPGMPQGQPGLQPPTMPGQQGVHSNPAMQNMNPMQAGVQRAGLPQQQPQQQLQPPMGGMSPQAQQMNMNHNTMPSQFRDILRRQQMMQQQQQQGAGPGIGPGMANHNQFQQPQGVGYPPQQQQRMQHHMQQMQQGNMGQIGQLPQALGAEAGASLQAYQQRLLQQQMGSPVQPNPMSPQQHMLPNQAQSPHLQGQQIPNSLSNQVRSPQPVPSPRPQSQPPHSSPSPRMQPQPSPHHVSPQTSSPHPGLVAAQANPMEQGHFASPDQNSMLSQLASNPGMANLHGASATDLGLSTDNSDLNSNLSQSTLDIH

B1: ELK1 (other, human, UniProt P19419 1-428, looked up)
chain: MDPSVTLWQFLLQLLREQGNGHIISWTSRDGGEFKLVDAEEVARLWGLRKNKTNMNYDKLSRALRYYYDKNIIRKVSGQKFVYKFVSYPEVAGCSTEDCPPQPEVSVTSTMPNVAPAAIHAAPGDTVSGKPGTPKGAGMAGPGGLARSSRNEYMRSGLYSTFTIQSLQPQPPPHPRPAVVLPSAAPAGAAAPPSGSRSTSPSPLEACLEAEEAGLPLQVILTPPEAPNLKSEELNVEPGLGRALPPEVKVEGPKEELEVAGERGFVPETTKAEPEVPPQEGVPARLPAVVMDTAGQAGGHAASSPEISQPQKGRKPRDLELPLSPSLLGGPGPERTPGSGSGSGLQAPGPALTPSLLPTHTLTPVLLTPSSLPPSIHFWSTLSPIAPRSPAKLSFQFPSSGSAQVHIPSISVDGLSTPVVLSPGPQKP
Consider B1, for which the binding result in experiment [1] is recorded as “binds”.

B2: MTF2/PCL2 (other, human, UniProt Q9Y483 1-593, looked up)
chain: MRDSTGAGNSLVHKRSPLRRNQKTPTSLTKLSLQDGHKAKKPACKFEEGQDVLARWSDGLFYLGTIKKINILKQSCFIIFEDSSKSWVLWKDIQTGATGSGEMVCTICQEEYSEAPNEMVICDKCGQGYHQLCHTPHIDSSVIDSDEKWLCRQCVFATTTKRGGALKKGPNAKALQVMKQTLPYSVADLEWDAGHKTNVQQCYCYCGGPGDWYLKMLQCCKCKQWFHEACVQCLQKPMLFGDRFYTFICSVCSSGPEYLKRLPLQWVDIAHLCLYNLSVIHKKKYFDSELELMTYINENWDRLHPGELADTPKSERYEHVLEALNDYKTMFMSGKEIKKKKHLFGLRIRVPPVPPNVAFKAEKEPEGTSHEFKIKGRKASKPISDSREVSNGIEKKGKKKSVGRPPGPYTRKMIQKTAEPLLDKESISENPTLDLPCSIGRTEGTAHSSNTSDVDFTGASSAKETTSSSISRHYGLSDSRKRTRTGRSWPAAIPHLRRRRGRLPRRALQTQNSEIVKDDEGKEDYQFDELNTEILNNLADQELQLNHLKNSITSYFGAAGRIACGEKYRVLARRVTLDGKVQYLVEWEGATAS
B2: the binding result in experiment [2] was “binds”.

B3: SOX7 fused to BioID2 (BirA from Aquifex aeolicus) and FLAG (other, human;Aquifex aeolicus, UniProt Q9BT81 1-388, looked up)
chain: MASLLGAYPWPEGLECPALDAELSDGQSPPAVPRPPGDKGSESRIRRPMNAFMVWAKDERKRLAVQNPDLHNAELSKMLGKSWKALTLSQKRPYVDEAERLRLQHMQDYPNYKYRPRRKKQAKRLCKRVDPGFLLSSLSRDQNALPEKRSGSRGALGEKEDRGEYSPGTALPSLRGCYHEGPAGGGGGGTPSSVDTYPYGLPTPPEMSPLDVLEPEQTFFSSPCQEEHGHPRRIPHLPGHPYSPEYAPSPLHCSHPLGSLALGQSPGVSMMSPVPGCPPSPAYYSPATYHPLHSNLQAHLGQLSPPPEHPGFDALDQLSQVELLGDMDRNEFDQYLNTPGHPDSATGAMALSGHVPVSQVTPTGPTETSLISVLADATATYYNSYSVS
notes: Tetracycline-inducible bait in HEK293 Flp-In T-REx cells; not shown: BioID2 biotin ligase (BirA from Aquifex aeolicus), C-terminal tag
Take B3: the binding result with p300 and with CBP was “binds” throughout.
